According to patent US11110182B2, “Multifunctional RNA nanoparticles and methods for treating cancer and therapeutic resistant cancer” (University of Cincinnati, priority 2016, dated 2021):

What was measured:
[1] = Stability analyses (RNase A, 10% FBS DMEM, 8 M urea) by native PAGE; format: in vitro ADME; settings: 37° C.
Source text: FIG. 1A) The scheme of the pRNA-HER2apt-siMED1 (p-HER2-siMED1) (SEQ ID NO: 15) structure. FIG. 1B) The p1 and p2 strands of pRNA-HER2apt-siMED1_were transcribed using an in vitro RNA transcription system and separated in 8% denatured PAGE gel. FIG. 1C) pRNA-HER2apt-siMED1 nanoparticles were generated by annealing equal molar of strands p1 and p2, and subjected to 8% native PAGE gel electrophoresis. FIG. 1D) DLS assay of hydrodynamic size of pRNA-HER2apt-siMED1 nanoparticle. FIG. 1E) The Tm value of pRNA-HER2apt-siMED1 nanoparticle determined by TGGE assay. FIG. 1F) The atomic force microscopy (AFM) images of pRNA-HER2apt-siMED1 nanoparticles. FIG. 1G) The stability of control unmodified and 2′-F modified pRNA nanoparticles was examined by 8% native PAGE gel electrophoresis after RNase A, 10% FBS-supplemented DMEM medium and 8M urea treatments for the indicated time at 37° C.
Cell culture. Human breast cancer luciferase-overexpressing BT474 and MDA-MB-231 cells were maintained in DMEM medium (Hyclone, Thermo Scientific) supplemented with 10% fetal bovine serum (FBS, Sigma) and 1% penicillin/streptomycin (Corning) at 37° C. in a humidified atmosphere with 5% CO2.^53 • Generation of pRNA nanoparticles. The two strands of pRNA were synthesized with the DNA templates, which were amplified with overlapping primers (Sigma) by PCR methods, using a T7 promoter-controlled in vitro RNA transcription system as previously described^33 (Table 1). All the CTP and UTP used for synthesis of the pRNA nanoparticles were 2′-fluoro modified, except the control unmodified pRNA nanoparticles used in the stability assays. […] The hydrodynamic diameter and Tm value of pRNA nanoparticles were determined using dynamic light scattering and TGGE assay, respectively, as previously described.^54 The AFM imaging of the pRNA nanoparticles was performed at the University of Nebraska Medical Center imaging facility as previously reported.^55 Briefly, the pRNA nanoparticles (5 μL) were deposited on APS modified mica ^56 for a total of 2 min of incubation time. […]

[2] = test system: MED1; test: MED1 protein level by western blots in MCF-7/HER2 cells; format: cell-based, human; settings: MCF-7/HER2, 10 μg/mL, 48 h
Procedure: FIGS. 10A-10D. Evidence that pRNA-HER2apt-siMED1 nanoparticles silenced MED1 expression and sensitized two other HER2+ breast cancer cells to tamoxifen treatment. FIG. 10A) Two HER2-overexpressing breast cancer cell lines MCF7/TAM and FIG. 10B) MCF7/HER2, were treated with 10 μg/mL pRNA-HER2apt-siMED1 nanoparticles or scramble control for 48 h, and then MED1 protein level was determined using western blots. FIG. 10C) MCF7/TAM and FIG. 10D) MCF7/HER2 cells were treated with 10 μg/mL pRNA nanoparticles and/or 1 μM tamoxifen (TAM) as indicated for 48 h, and then cell growth was determined using an MTT assay.
Next, the ability of pRNA-HER2apt-siMED1 nanoparticles to silence the expression of MED1 in BT474 and MDA-MB-231 human breast cancer cells was examined. Using real-time PCR analyses, a significant depletion of nearly 70% of MED1 mRNA in BT474 cells after pRNA-HER2apt-siMED1 but not pRNA-HER2apt^mut-siMED1 treatment was found (FIG. 3A).

B1: pRNA-HER2apt-siMED1: 3-WJ pRNA nanoparticle bearing a HER2-targeting RNA aptamer and two different MED1 siRNAs; strands p1 SEQ ID NO: 3, p2 SEQ ID NO: 4 (nucleic acid)
chain 1: GGACAGUGAAAGUGAGUCAAAGGAUCAAUCAUGGCCAAAGAUGUUACUUUGAGAGCCUU
chain 2: GGCUCUCAAAGUAACAUCUAAGGCCAUGUGUAUGUGGGGGGAGGACGAUGCGGUCUGCUGUGCUUGAUAUGCCCCAGACGACUCGCCCCCCACAUACUUUGUUGAUCCAAUGACUCACUUUCACUGUCCUU
modifications: 2'-F modification; third strand may lack entry; pRNA-HER2apt-siMED1, p1; pRNA-HER2apt-siMED1, p2
[1]; 10 μg/mL RNase A
  resistance to RNase A treatment: resistant
[1]; 8M urea
  structure in 8M urea: maintained their structure
[1]
  stability in 10% FBS-supplemented DMEM medium: highly stable
[2]
  MED1 silencing: confirmed
